What is called Kd is the equilibrium constant for the complex coming apart.

Results on 1 molecule are retold here after patent US10172917B2, “Targeted oesophageal administration of ZN-α2-glycoproteins (ZAG), methods and formulations thereof” (ASTON UNIVERSITY, priority 2012, dated 2019).

The subject of one assay is ob/ob mice. The assay can be described thus: Serum metabolite and insulin levels in ob/ob mice after ZAG administration. Format: in vivo, mouse. As to conditions: ob/ob mice after ZAG administration. The source says:
FCS (foetal calf serum) was from Biosera (Sussex, UK), while DMEM (Dulbecco's modified Eagles Medium) was from PAA (Somerset, UK) and Freestyle medium was purchased from Invitrogen (Paisley, UK). Hybond A nitrocellulose membranes and peroxidise—conjugated rabbit anti-mouse antibody were from GE Healthcare (Bucks, UK), while enhanced chemiluminescene (ECL) development kits were purchased from Thermo Scientific (Northumberland, UK). Mouse monoclonal antibodies to full-length human and mouse ZAG were from Santa Cruz Biotechnology (Santa Cruz, Calif. A mouse insulin ELISA kit was purchased from DRG (Marburg, Germany) and glucose measurements in both urine and plasma were made using a Boots (Nottingham, UK) glucose kit. L-[U-^14C] tyrosine (sp.act 16.7 GBqmmol^−1) was purchased from Perkin Elmer Ltd, (Cambridge, UK), while 2-[1-^14C] deoxy-D-glucose (sp.act 1.85 GBqmmol^−1) was from American Radiolabeled Chemicals (Cardiff, UK).
Obese (ob/ob) mice (average weight 65 g) were bred in a colony, and were kept in an air conditioned room at 22+2° C. with ad libitum feeding of a rat and mouse breeding diet (Special Diet Services, Witham, UK) and tap water. […] Animals were grouped (n=5) to receive either ZAG/PBS (50 μg day^−1), or PBS in their drinking water, the experiment was repeated three times after a power analysis was performed. […] The ZAG was replaced every 48 h. One group of mice receiving ZAG were also administered propanolol (40 mgkg^−1, p.o.) daily. The dose of ZAG was chosen to be the same as that previously administered i.v. (1), so that a direct comparison could be made, between the two routes. Body weight, food and water intake, urinary glucose excretion, and body temperature, determined by the use of a rectal thermometer (RS Components, Northants, UK), were measured daily. A glucose tolerance test was performed on day 3. Animals were fasted for 12 h, followed by oral administration of glucose (1 gkg^−1 in a volume of 100 μl by gavage). Blood samples were removed from the tail vein at 15, 30, 60 and 120 min and used for the measurement of glucose. Urinary glucose was measured by collecting 0.5 ml urine and testing glucose concentration using a Boots glucose monitor. After 8 days of treatment the animals were terminated by cervical dislocation, tissues were removed and rapidly frozen in liquid nitrogen, and maintained at −80° C. Future work would be to repeat this work in diet-induced animals as alternative to a model with gene alteration, although previous studies have shown the ob/ob mouse to be a good indicator of potential human treatments. Animal studies were conducted under Home Office Licence according to the UKCCCR Guidelines for the care and use of laboratory animals.

A further assay concerns the target T1, human β2-AR (Homo sapiens, UniProt P07550).
T1 construct: expressed in transfected cells; host or cells: CHOK1 (CHO-K1) cells
The assay can be described thus: Cyclic AMP production in CHO cells transfected with human β2-AR. Format: cell-based. As to conditions: 30 min incubation. The procedure:
(§1) FIG. 3C is a graphical representation of the effect of a tryptic digest of ZAG in comparison with intact ZAG on cyclic AMP production by CHO cells transfected with human β1-AR (▪), β2-AR(□) and β3-AR) ( ? ) after 30 min incubation. ZAG (1 mg) was incubated with trypsin (200 μg) in 1 ml 10 mM Tris.HCl, pH8 for 4 h at 37° C. and proteolysis was terminated by addition of the trypsin inhibitor (200 μg). High molecular weight material was removed by a Sephadex G25 column followed by dialysis using an Amicon filtration cell containing a 10 kDa cut-off membrane filter.
(§2) CHOK1 cells transfected with human β1-, β2- and β3-AR were maintained in DMEM supplemented with 2 mM glutamine, hygromycin B (50 μgml^−1), G418 ([…]) and 10% FCS, under an atmosphere of 10% CO2 in air. For cyclic AMP production cells were grown in 24-well plates in 1 ml nutrient medium, and ZAG, after tryptic digestion as described in the legend to FIG. 3C, was incubated for 30 min. The medium was then removed and 0.5 ml of 20 mM HEPES, pH7.5, 5 mM EDTA and 0.1 mM isobutylmethylxanthine was added, followed by heating on a water bath for 5 min, and cooling on ice for 10 min. The concentration of cyclic AMP was determined using a Parameter cyclic AMP assay kit (New England Biolabs, Hitchin, Herts, UK).

Assay [1] addresses T2, β3-AR (Homo sapiens, UniProt P13945). As to conditions: high affinity binding site on the β3-AR; previous studies; cited from earlier work.
Another assay relates to BAT of ob/ob mice. As to conditions: ob/ob mice after ZAG administration; cited from earlier work.
The target of assay [2] is T2, β3-AR. Description: Cyclic AMP production in CHO cells transfected with human β3-AR. Format: cell-based. As to conditions: 30 min incubation. Also on record: expressed in transfected cells; host or cells: CHOK1 (CHO-K1) cells. The procedure: as §1, §2

T2 sequence (P13945 whole entry): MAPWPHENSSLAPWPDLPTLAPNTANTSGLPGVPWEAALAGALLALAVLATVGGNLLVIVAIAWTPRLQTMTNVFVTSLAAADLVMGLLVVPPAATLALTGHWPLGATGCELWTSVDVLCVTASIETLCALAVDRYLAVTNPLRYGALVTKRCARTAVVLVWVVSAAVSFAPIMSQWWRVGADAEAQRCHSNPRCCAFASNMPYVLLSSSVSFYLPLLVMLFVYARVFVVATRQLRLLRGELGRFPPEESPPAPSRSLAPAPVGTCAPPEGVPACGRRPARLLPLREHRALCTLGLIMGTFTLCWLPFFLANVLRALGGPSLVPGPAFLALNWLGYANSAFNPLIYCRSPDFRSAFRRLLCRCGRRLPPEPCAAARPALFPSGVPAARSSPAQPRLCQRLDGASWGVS

B1: zinc-α2-glycoprotein (protein, listed as Homo sapiens)
chain: QENQDGRYSLTYIYTGLSKHVEDVPAFQALGSLNDLQFFRYNSKDRKSQPMGLWRQVEGMEDWKEDSQLQKAREDMETLKDIVEYYNDSNGSHVLQGRFGCEIENNRSSGAFWKYYYDGKDYIEFNKEIPAWVPFDPAAQITKQKWEAEPVYVQRAKAYLEEECPATLRKYLKYSKNILDRQDPPSVVVTSHQAPGEKKKLKCLAYDFYPGKIDVHWTRAGQVQEPELRGDVLHNGNGTYQSWVVVAVPPQDTAPYSCHVQHSSLAQPLVVPWEAS
notes: Recombinant human ZAG, a 41 kDa protein, produced by HEK293F cells transfected with pcDNA3.1 containing human ZAG
As for B1, in the assay on ob/ob mice, the serum glucose level entry is given as “decrease”, the serum glycerol level entry is “elevation”, the serum insulin level entry was “decrease” and the “serum non-esterified fatty acids” value is on record as “decrease”. For the same molecule, the serum triglycerides result in the assay on ob/ob mice was “decrease”. Also, the “cyclic AMP production” value in the assay with human β2-AR is on record as “stimulated”. Also, in the assay with β3-AR [1], the Bmax is 282±1 fmole mg protein^−1 and the Kd was 78 ± 45 nM. Moreover, the “increase in oxygen uptake by BAT” value in the assay with BAT of ob/ob mice is “three-fold”. The “cyclic AMP production” value with β3-AR [2] is on record as “stimulated”.
